15 molecules from US20240116985A1 (published 2024) can be followed below.

Starred links: 1 amine or outer side, 2 acyl side, 3 side chain; linkers in the order of their positions; H or OH if unused. Positions of bridges follow the written chain, without caps; N, C: chain ends. Non-standard residues stand in square brackets, D forms with d. Primed or numbered codes have the meaning given here. PyrS2″ = (S)-3-amino-1-((pent-4-en-1-yloxy)carbonyl)pyrrolidine-3-carboxylic acid (stapling residue), C=CCCCOC(=O)N1CC[C@@](N[*:1])(C(=O)[*:2])C1; B5(6) = 2-amino-2-(pent-4-en-1-yl)hept-6-enoic acid (bis(4-pentenyl)glycine), stitching residue, C=CCCCC(CCCC=C)(N[*:1])C(=O)[*:2]; B5 = 2-amino-2-(pent-4-en-1-yl)hept-6-enoic acid, C=CCCCC(CCCC=C)(N[*:1])C(=O)[*:2]; Bta = N[C@@H](Cc1csc2ccccc12)C(=O)O; αAllylPro = C=CC[C@@]1(C(=O)O)CCCN1; tBuAla = CC(C)(C)C[C@H](N)C(=O)O; 3Thi = N[C@@H](Cc1ccsc1)C(=O)O; S8 = C=CCCCCCC[C@](C)(N)C(=O)O; hSer = N[C@@H](CCO)C(=O)O

Assay [1] addresses T1, B-cat-Halo (beta-catenin HaloTag fusion expressed in HEK293 cells) (Homo sapiens (Human), UniProt P35222 1-781).
T1 sequence: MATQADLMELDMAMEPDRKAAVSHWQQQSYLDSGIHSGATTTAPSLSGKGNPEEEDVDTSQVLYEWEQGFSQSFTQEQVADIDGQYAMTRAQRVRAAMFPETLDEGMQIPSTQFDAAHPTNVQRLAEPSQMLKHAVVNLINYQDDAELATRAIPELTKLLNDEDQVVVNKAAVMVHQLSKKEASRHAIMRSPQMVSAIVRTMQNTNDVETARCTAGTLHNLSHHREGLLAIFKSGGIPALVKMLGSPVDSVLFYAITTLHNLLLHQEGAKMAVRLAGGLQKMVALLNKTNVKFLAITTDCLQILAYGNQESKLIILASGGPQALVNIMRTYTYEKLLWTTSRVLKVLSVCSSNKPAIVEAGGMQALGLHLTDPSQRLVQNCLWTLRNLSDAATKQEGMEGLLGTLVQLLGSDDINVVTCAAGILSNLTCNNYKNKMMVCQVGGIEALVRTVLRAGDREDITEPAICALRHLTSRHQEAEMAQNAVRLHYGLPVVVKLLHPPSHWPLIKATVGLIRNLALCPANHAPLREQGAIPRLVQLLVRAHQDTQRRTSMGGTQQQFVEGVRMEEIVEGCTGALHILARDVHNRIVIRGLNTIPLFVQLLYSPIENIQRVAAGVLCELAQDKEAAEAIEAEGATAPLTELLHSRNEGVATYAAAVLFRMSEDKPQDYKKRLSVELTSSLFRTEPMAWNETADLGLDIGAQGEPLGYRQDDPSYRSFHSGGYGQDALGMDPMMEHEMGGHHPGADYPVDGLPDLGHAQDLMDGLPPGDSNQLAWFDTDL
Put plainly: cell-based or functional assay.

The target of assay [2] is T2, full-length beta-Catenin (Uniprot ID P35222) (Homo sapiens (Human), UniProt P35222 1-781).
T2 construct: Used full-length in the fluorescence polarization probe solution (10 nM); also called bCat; B-Catenin
T2 sequence: T1 sequence
Briefly: fluorescence polarization competition; displacement of 5FAM-TCF4(10-53) from full-length beta-catenin. The protocol:
(§1) The plate was incubated protected from light for 60 minutes at 20° C. prior to read. Reads were performed on a CLARIOstar plate reader (BMG Labtech) in duplicate, and data were fitted to a 1:1 binding model with hill slope using an in-house script. All provided concentrations are final concentrations.

Assay [3] addresses T3, full-length beta-Catenin (Uniprot ID P35222) (Homo sapiens (Human), UniProt P35222 1-781).
T3 construct: The assay protocols call it full-length; also called B-Catenin; bCat
T3 sequence: T1 sequence
Put plainly: AlphaScreen competition; full-length beta-catenin with biotin-labelled TCF4 10-53 peptide as competitor. The protocol: Equal volume of the titrated peptide was added to the plate and incubated for 15 minutes at 20° C. Then 4 uL of donor and 4 uL acceptor beads at 10 ug/mL were added to the plate, for a 16 uL reaction pool and protected from light for 60 minutes at 20° C. prior to read. Reads were performed on a CLARIOstar plate reader (BMG Labtech) in duplicate, and data were fitted to a 1:1 binding model with hill slope using an in-house script. All provided concentrations are final concentrations.

In assay [4] the target is T3, full-length beta-Catenin (Uniprot ID …). Briefly: fluorescence polarization competition; full-length beta-catenin with 5FAM-labelled TCF4 10-53 peptide as competitor. On the procedure:
as §1

For Ac-[αAllylPro]D[tBuAla][B5]DDAAFN[PyrS2″][3Thi][Bta][dN]-NH2 (staple 1-4, 4-11) [I-818], the “NanoBRET % inh @ 10 uM” value in assay [1] was determined as 31.4%. In the case of Ac-[αAllylPro]DI[B5(6)]DEAAFN[S8]F[Bta]H-NH2 (staple 1-4, 4-11, Stapled peptide composition) [I-472], in assay [2], a half-maximal response (EC50) required 62 nM.

B1: I-475 (peptide)
peptide: XDIXDEAAFNXFXQ
modifications: not fully specified; Ac-PL3-Asp-aIle-B5-Asp-Glu-Ala-Ala-Phe-Asn-S8-Phe-BztA-Gln-NH2; N-terminal acetyl, C-terminal amide; stapled PL3-B5 and B5-S8
notes: Stapled peptide composition
In assay [2], B1 displayed an EC50 of 102 nM.

B2: I-479 (peptide)
peptide: XDAXDEAAFNXFXH
modifications: not fully specified; Ac-PL3-Asp-Ala-B5-Asp-Glu-Ala-Ala-Phe-Asn-S8-Phe-BztA-1MeH-NH2; N-terminal acetyl, C-terminal amide; stapled PL3-B5 and B5-S8
notes: Stapled peptide composition
In turn, B2 gave an EC50 in assay [2] of 27 nM.

For the molecule Ac-[αAllylPro]DI[B5(6)]DEAAFQ[S8]F[Bta]H-NH2 (staple 1-4, 4-11, Stapled peptide composition) [I-471], a half-maximal effect in assay [2] (EC50) was put at 52 nM.

B3: I-478 (peptide)
peptide: XDAXDEAAFNXFXH
modifications: not fully specified; Ac-PL3-Asp-Ala-B5-Asp-Glu-Ala-Ala-Phe-Asn-S8-Phe-BztA-1MeH-NH2; N-terminal acetyl, C-terminal amide; stapled PL3-B5 and B5-S8
notes: Stapled peptide composition
On to B3, for which the EC50 in assay [2] was 71 nM. Still for that read-out and setting: the result for Ac-[αAllylPro]DI[B5(6)]DDAAFN[S8]F[Bta]H-NH2 (staple 1-4, 4-11; also: separate HPLC peak/isomer composition from I-469, Stapled peptide composition) [I-470] reads 11 nM.

B4: I-495 (peptide)
peptide: XDIXDEAAFQXFXN
modifications: not fully specified; Ac-PL3-Asp-Ile-B5-Asp-Glu-Ala-Ala-Phe-Gln-S8-Phe-BztA-Asn-NH2; N-terminal acetyl, C-terminal amide; stapled PL3-B5 and B5-S8
notes: Stapled peptide composition
Take B4: in assay [2], the EC50 is 181 nM.

B5: I-476 (peptide)
peptide: XDIXDEAAFNXFXQ
modifications: not fully specified; Ac-PL3-Asp-aIle-B5-Asp-Glu-Ala-Ala-Phe-Asn-S8-Phe-BztA-Gln-NH2; N-terminal acetyl, C-terminal amide; stapled PL3-B5 and B5-S8
notes: Stapled peptide composition
B5 had a concentration for a half-maximal effect (EC50) in assay [2] of 48 nM.

B6: I-275 (peptide)
peptide: XDAXDDAAFVXXWQ
modifications: not fully specified; N-terminal Ac; PL3 at 1; B5 at 4; S8 at 11; 1NapA at 12; C-terminal NH2; staples PL3(1)-B5(4) and B5(4)-S8(11) by olefin metathesis
notes: Stapled (stitched) peptide; also called Ac-PL3-Asp-Ala-B5-Asp-Asp-Ala-Ala-Phe-Val-S8-1NapA-Trp-Gln-NH2
As for B6, the figures for the EC50 in assay [3] and in assay [4] were 859 nM and 5000 nM, respectively.

B7: I-494 (peptide)
peptide: XDAXDEAAFQXFXQ
modifications: not fully specified; Ac-PL3-Asp-Ala-B5-Asp-Glu-Ala-Ala-Phe-Gln-S8-Phe-BztA-DGIn-NH2 (so in the source); read as D-Gln at position 14); N-terminal acetyl, C-terminal amide; stapled PL3-B5 and B5-S8
notes: Stapled peptide composition
Take B7: the EC50 in assay [2] was 82 nM.

B8: I-498 (peptide)
peptide: Ac-[αAllylPro]DA[B5(6)][hSer]EAAFQ[S8]F[Bta]Q-NH2
modifications: staple 1-4, 4-11; not fully specified; printed as Ac-PL3-Asp-Ala-B5-Hse-Glu-Ala-Ala-Phe-Gln-S8-Phe-BztA-Gln-NH2
notes: Stapled peptide composition
In assay [2], B8 had a 50% effective concentration (EC50) of 5000 nM.

B9: I-493 (peptide)
peptide: XDAXDEAAFQXFXS
modifications: not fully specified; Ac-PL3-Asp-Ala-B5-Asp-Glu-Ala-Ala-Phe-Gln-S8-Phe-BztA-DSer-NH2; N-terminal acetyl, C-terminal amide; D-Ser at position 14; stapled PL3-B5 and B5-S8
notes: Stapled peptide composition
Turning to B9, the concentration giving a half-maximal response (EC50) in assay [2] came out at 88 nM.

B10: I-491 (peptide)
peptide: XDAXDEAAFQXFXS
modifications: not fully specified; Ac-PL3-Asp-Ala-B5-Asp-Glu-Ala-Ala-Phe-Gln-S8-Phe-BztA-Hse-NH2; N-terminal acetyl, C-terminal amide; stapled PL3-B5 and B5-S8
notes: Stapled peptide composition
With B10, a half-maximal effect in assay [2] (EC50) was put at 153 nM.

B11: I-496 (peptide)
peptide: Ac-[αAllylPro]DA[B5(6)][hSer]EAAFQ[S8]F[Bta]Q-NH2
modifications: staple 1-4, 4-11; not fully specified; printed as Ac-PL3-Asp-Ala-B5-Hse-Glu-Ala-Ala-Phe-Gln-S8-Phe-BztA-Gln-NH2
notes: Stapled peptide composition
Regarding B11, in assay [2], the 50% effective concentration (EC50) came to 5000 nM.
